For orientation: stoichiometry N means the number of molecules, sites or subunits per partner or assembly.

Experimental findings from PMC4534181 are described below.

This experiment concerns the target wild-type α1-antitrypsin (recombinant) (human) (UniProt P01009). As to the kind of experiment: native MS; 15 μM α1-antitrypsin incubated with TTAI at peptide:protein molar ratios 0.1:1 to 5:1 for 3 days at 37.5°C in phosphate buffer pH 7.4; exchanged into 200 mM ammonium acetate pH 8; nanoelectrospray, Synapt.
UniProt P01009, sequence (P01009 25-418): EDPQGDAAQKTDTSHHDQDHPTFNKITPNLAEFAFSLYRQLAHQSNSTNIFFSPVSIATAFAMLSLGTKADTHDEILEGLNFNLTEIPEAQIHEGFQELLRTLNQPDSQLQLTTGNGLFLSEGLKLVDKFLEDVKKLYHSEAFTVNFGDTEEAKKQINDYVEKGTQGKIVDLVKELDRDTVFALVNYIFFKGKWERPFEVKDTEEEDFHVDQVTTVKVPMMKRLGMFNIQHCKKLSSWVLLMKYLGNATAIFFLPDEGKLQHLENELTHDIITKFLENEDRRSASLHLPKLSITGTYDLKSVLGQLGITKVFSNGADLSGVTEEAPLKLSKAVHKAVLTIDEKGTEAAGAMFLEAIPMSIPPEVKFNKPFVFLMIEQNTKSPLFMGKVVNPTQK

For Ac-TTAI-NH2 [reactive loop analogue tetrapeptide Thr-Thr-Ala-Ile (TTAI)], the stoichiometry N stood at 2 copies.
